The results in this text go back to patent US20030138894A1 (Human Genome Sciences, published 2003).

Positions of bridges follow the written chain, without caps; N, C: chain ends. No end group written: not given here.

First the molecules themselves.
B1: DX-512 Ac-GDRLHCKPQRQSPWMKCQHLDPEGGG-NH2 (peptide)
peptide: Ac-GDRLHCKPQRQSPWMKCQHLDPEGGG-NH2
modifications: disulfide 6-17 (inferred); also: oxidized peptide
notes: synthetic, TN12 library; also called B-H7
B2: DX-513 Ac-GDLHACRPVRGDPWWACTLGDPEGGG-NH2 (peptide)
peptide: Ac-GDLHACRPVRGDPWWACTLGDPEGGG-NH2
modifications: disulfide 6-17 (inferred); also: oxidized peptide
notes: synthetic, TN12 library; also called ACEH2-D8
B3: DX-601 Ac-GDGFTCSPIRMFPWFRCDLGDPEGGG-NH2 (peptide)
peptide: Ac-GDGFTCSPIRMFPWFRCDLGDPEGGG-NH2
modifications: disulfide 6-17 (inferred); not fully specified; printed as Ac-GDGFTCSPIRMFPWFRCDLGDPEGGG-NH2
B4: ACE-2 binding polypeptide RYLCLPQRDKPWKFCNWF (peptide)
peptide: RYLCLPQRDKPWKFCNWF
modifications: not fully specified (N-terminus, C-terminus, bridges); cysteine pairing not given here
B5: ACE-2 binding polypeptide SDWCGTWNNPCFHQ (peptide)
peptide: SDWCGTWNNPCFHQ
modifications: not fully specified (N-terminus, C-terminus, bridges); cysteine pairing not given here
B6: ACE-2 binding polypeptide WEVCHWAPMMCKHG (peptide)
peptide: WEVCHWAPMMCKHG
modifications: not fully specified (N-terminus, C-terminus, bridges); cysteine pairing not given here
B7: ACE-2 binding polypeptide RLHCKPQRQSPWMKCQHL (peptide)
peptide: RLHCKPQRQSPWMKCQHL
modifications: not fully specified (N-terminus, C-terminus, bridges); cysteine pairing not given here
B8: ACE-2 binding polypeptide YSHCSPLRYYPWWKCTYP (peptide)
peptide: YSHCSPLRYYPWWKCTYP
modifications: not fully specified (N-terminus, C-terminus, bridges); cysteine pairing not given here
B9: ACE-2 binding polypeptide QKECKFGYPHCLPW (peptide)
peptide: QKECKFGYPHCLPW
modifications: not fully specified (N-terminus, C-terminus, bridges); cysteine pairing not given here

T1 sequence (Q9BYF1 18-740 limits assumed): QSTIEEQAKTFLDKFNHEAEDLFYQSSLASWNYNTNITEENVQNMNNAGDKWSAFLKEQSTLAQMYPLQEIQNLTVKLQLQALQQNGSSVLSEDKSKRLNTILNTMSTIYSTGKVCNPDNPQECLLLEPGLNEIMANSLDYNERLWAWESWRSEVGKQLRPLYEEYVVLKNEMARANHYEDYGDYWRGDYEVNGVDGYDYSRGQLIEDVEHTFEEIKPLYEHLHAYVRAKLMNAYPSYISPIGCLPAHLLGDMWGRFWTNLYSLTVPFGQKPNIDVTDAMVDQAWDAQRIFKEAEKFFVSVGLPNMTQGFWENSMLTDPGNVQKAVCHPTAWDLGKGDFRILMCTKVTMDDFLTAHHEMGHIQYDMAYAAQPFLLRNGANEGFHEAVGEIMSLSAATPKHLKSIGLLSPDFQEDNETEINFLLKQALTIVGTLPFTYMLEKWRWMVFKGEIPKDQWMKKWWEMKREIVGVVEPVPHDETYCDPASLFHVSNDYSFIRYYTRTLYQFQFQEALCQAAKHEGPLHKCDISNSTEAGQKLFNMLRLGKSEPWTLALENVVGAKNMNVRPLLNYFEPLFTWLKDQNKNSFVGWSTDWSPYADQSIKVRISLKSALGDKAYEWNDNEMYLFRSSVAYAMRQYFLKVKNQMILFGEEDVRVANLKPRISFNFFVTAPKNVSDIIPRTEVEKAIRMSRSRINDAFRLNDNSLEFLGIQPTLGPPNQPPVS
T2 sequence (Q9BYF1 18-740 limits assumed): as above

One test concerns the target T1, recombinant human-ACE-2 (human, UniProt Q9BYF1 18-740, limits assumed). Briefly: cell-based or functional assay.
As usually defined, the IC50 is the concentration needed to halve the response being measured. As to Ac-GDRYLCLPQRDKPWKFCNWFDPEGGG-NH2 (disulfide 6-17 (inferred); also: oxidized peptide) [DX-599 Ac-GDRYLCLPQRDKPWKFCNWFDPEGGG-NH2], the “IC50” value is 140 nM.

Take Ac-GSRGFCRDSSCSFPAPGEGGG-NH2 (disulfide 6-11 (inferred); also: oxidized peptide) [DX-525 Ac-GSRGFCRDSSCSFPAPGEGGG-NH2]: the “IC50” value is 1000 nM.

Take Ac-GDFSPCKALRHSPWWVCPSGDPEGGG-NH2 (disulfide 6-17 (inferred); also: oxidized peptide) [DX-602 Ac-GDFSPCKALRHSPWWVCPSGDPEGGG-NH2]: the “IC50” value amounted to 120 nM.

Regarding Ac-AGQKECKFGYPHCLPWGTEGGG-NH2 (disulfide 6-13 (inferred); also: oxidized peptide) [DX-530 Ac-AGQKECKFGYPHCLPWGTEGGG-NH2], the “IC50” value amounted to 30000 nM.

As for Ac-AGSDWCGTWNNPCFHQGTEGGG-NH2 (disulfide 6-13 (inferred); also: oxidized peptide) [DX-531 Ac-AGSDWCGTWNNPCFHQGTEGGG-NH2], the concentration for half-maximal inhibition (IC50) was found to be 500 nM.

As to B1, the half-inhibitory concentration (IC50) was determined as 60 nM.

Regarding Ac-AGWEVCHWAPMMCKHGGTEGGG-NH2 (disulfide 6-13 (inferred); also: oxidized peptide) [DX-529 Ac-AGWEVCHWAPMMCKHGGTEGGG-NH2], the “IC50” value is 400 nM.

Regarding Ac-GSRIGCRDSRCNWWAPGEGGG-NH2 (disulfide 6-11 (inferred); also: oxidized peptide) [DX-524 Ac-GSRIGCRDSRCNWWAPGEGGG-NH2], the “IC50” value amounted to 600 nM.

Turning to B2, the “IC50” value amounted to 90 nM.

B3: the “IC50” value worked out at 68 nM.

The next test addresses T2, FLAG-tagged ACE-2 target (human, UniProt Q9BYF1 18-740).
T2 construct: range 1-740; obtained from Human Genome Sciences, Inc; also called FLAG-ACE-2; tagged human ACE-2; not shown: FLAG tag
Briefly: phage ELISA on FLAG-ACE-2. As to the method: Phage enriched from the third round of selection were screened by ELISA for strong ACE-2 binders. Immulon 2 96-well plates (Dynatech) were coated with streptavidin for 1 hour at 37° C. and subsequently coated with anti-FLAG antibody for 1 hour at room temperature. Half of the plates were further coated with FLAG-ACE-2 as the target plates, and the other half of the plates were coated with FLAG peptide as background plates. The amount of each protein or peptide coated was 100 ng per well. The coated plates were then incubated for 1 hour at room temperature with 1:2 diluted overnight phage cultures that were made by inoculating phage from individual plaques into bacterial host cells. After being washed 7 times with PBST, the plates were incubated with HRP-conjugated anti-M13 antibody (Pharmacia) for 1 hour at room temperature, washed 5 times, developed with TMB peroxidase substrate solution (Kirkegaad & Perry Laboratories, Gaithersburg, Md.), and read at 630 nm on an ELISA plate reader.
Consider FLLCFDWDIDWEYGCQHH (not fully specified (bridges); cysteine pairing not given here) [ACE-2 binding polypeptide FLLCFDWDIDWEYGCQHH], for which the binding result is listed as “binds”.

As to B4, the binding result is “binds”.

Turning to B5, the binding result is “binds”.

Consider YEFCHYAPQECKHM (not fully specified (bridges); cysteine pairing not given here) [ACE-2 binding polypeptide YEFCHYAPQECKHM], for which the binding result is “binds”.

With MDHCTWYQPCVLK (not fully specified (bridges); cysteine pairing not given here) [ACE-2 binding polypeptide MDHCTWYQPCVLK], the binding result is reported as “binds”.

As for EHNCTWWNPCWTT (not fully specified (bridges); cysteine pairing not given here) [ACE-2 binding polypeptide EHNCTWWNPCWTT], the binding result is “binds”.

For YEECHWRPMACSTH (not fully specified (bridges); cysteine pairing not given here) [ACE-2 binding polypeptide YEECHWRPMACSTH], the binding result is listed as “binds”.

Take LHACRPVRGDPWWACTLG (disulfide 4-15 (inferred); not fully specified (N-terminus, C-terminus)) [ACE-2 binding polypeptide LHACRPVRGDPWWACTLG]: the binding result was “binds”.

Take YWFCFDWEEDANGHCGGN (not fully specified (bridges); cysteine pairing not given here) [ACE-2 binding polypeptide YWFCFDWEEDANGHCGGN]: the binding result is on record as “binds”.

For the molecule B6, the binding result is “binds”.

Take WDHCNWAHPCSRK (not fully specified (bridges); cysteine pairing not given here) [ACE-2 binding polypeptide WDHCNWAHPCSRK]: the binding result was “binds”.

In the case of B7, the binding result is “binds”.

For the molecule LEMCEALFCVEF (disulfide 4-9 (inferred); not fully specified (N-terminus, C-terminus)) [ACE-2 binding polypeptide LEMCEALFCVEF], the binding result is given as “binds”.

Regarding B8, the binding result is listed as “binds”.

Take B9: the binding result is recorded as “binds”.

The next test has as its target T1, recombinant human-ACE-2. As to the kind of experiment: fluorometric ACE-2 activity assay, M-2195 substrate. On the procedure: Assay mixture was prepared first by pre-incubating (30 minutes, room temperature) the enzyme with the inhibitor (0.45 μg ([…]) ACE-2, 0-0.5 μM inhibitor rage, up to 90 […] volume with 100 mM TRIS pH 7.4, 0.1% Tween-20, 0.4% DMSO) in each well, in triplicate, by dispensing volumes using a repeat pipetter (Rainin) into a 96-well clear-bottom back plate (Costar, 07-200-590). […] Substrate stock (10 μL of 10× concentration) was added to each well to be tested in blocks of three vertically down the plate. The reaction was monitored on a Spectrafluor Plus (Tecan) at an excitation wavelength of 340 nm and an emission wavelength of 400 nm (+/−35 nm) every 30 seconds for a time period of 10 minutes.
Broadly, the Ki is a measure of affinity in units of concentration, obtained from inhibition or displacement. For B1, the Ki came out at 150 nM.

Regarding B2, the Ki is 150 nM.
